Source: article doi:10.1101/2025.09.10.675378 (bioRxiv, 2025)

B1: hDVL3 PDZ-IDR2-DEP (aa 243-496) (domain or fragment)
chain: MSLNIITVTLNMEKYNFLGISIVGQSNERGDGGIYIGSIMKGGAVAADGRIEPGDMLLQVNEINFENMSNDDAVRVLREIVHKPGPITLTVAKCWDPSPRGCFTLPRSEPIRPIDPAAWVSHTAAMTGTFPAYGMSPSLSTITSTSSSITSSIPDTERLDDFHLSIHSDMAAIVKAMASPESGLEVRDRMWLKITIPNAFIGSDVVDWLYHNVEGFTDRREARKYASNLLKAGFIRHTVNKITFSEQCYYIFGD
B2: phosphorylated hDVL3 PDZ-IDR2-DEP (PDZ-pIDR2-DEP, aa 243-496) (domain or fragment)
chain: B1 chain
modifications: 8-19 phosphates on S/T residues of IDR2 (native ESI-MS), added by CK1ε

Biological target: the molecule itself
Test: native MS

Protein | binding result
B1 | binds
B2 | binds
